Patent US20180259527

Molecular target: T1, recombinant proclotting enzyme of Japanese horseshoe crab (His-tag free)
T1 chain: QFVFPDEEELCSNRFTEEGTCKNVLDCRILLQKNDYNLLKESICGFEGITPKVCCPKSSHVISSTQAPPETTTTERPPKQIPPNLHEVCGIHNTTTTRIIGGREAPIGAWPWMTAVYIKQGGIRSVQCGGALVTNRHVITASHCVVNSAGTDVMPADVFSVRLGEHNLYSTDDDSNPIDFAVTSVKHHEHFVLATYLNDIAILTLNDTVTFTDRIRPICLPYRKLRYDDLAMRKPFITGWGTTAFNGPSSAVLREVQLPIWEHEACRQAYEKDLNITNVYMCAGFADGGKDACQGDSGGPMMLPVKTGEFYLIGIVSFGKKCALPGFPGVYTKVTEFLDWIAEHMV

B1: His-tag-attached factor C (factor C of Japanese horseshoe crab of SEQ ID NO:2 with a 6xHis-tag at the C-terminus) (protein)
chain: RGVDLGLCDETRFECKCGDPGYVFNVPMKQCTYFYRWRPYCKPCDDLEAKDICPKYKRCQECKAGLDSCVTCPPNKYGTWCSGECQCKNGGICDQRTGACTCRDRYEGAHCEILKGCPLLPSDSQVQEVRNPPDNPQTIDYSCSPGFKLKGVARISCLPNGQWSSFPPKCIRECAKVSSPEHGKVNAPSGNMIEGATLRFSCDSPYYLIGQETLTCQGNGQWSGQIPQCKKLVFCPDLDPVNHAEHQVKIGVEQKYGQFPQGTEVTYTCSGNYFLMGFNTLKCNPDGSWSGSQPSCVKVADREVDCDSKAVDFLDDVGEPVRIHCPAGCSLTAGTVWGTAIYHELSSVCRAAIHAGKLPNSGGAVHVVNNGPYSDFLGSDLNGIKSEELKSLARSFRFDYVSSSTAGRSGCPDGWFEVEENCVYVTSKQRAWERAQGVCTNMAARLAVLDKDLIPSSLTETLRGKGLTTTWIGLHRLDAEKPFVWELMDRSNVVLNDNLTFWASGEPGNETNCVYLDIRDQLQPVWKTKSCFQPSSFACMMDLSDRNKAKCDDPGPLENGHATLHGQSIDGFYAGSSIRYSCEVLHYLSGTETVTCTTNGTWSAPKPRCIKVITCQNPPVPSYGSVEIKPPSRTNSISRVGSPFLRLPRLPLPLARAAKPPPKPRSSQPSTVDLASKVKLPEGHYRVGSRAIYTCESRYYELLGSQGRRCDSNGNWSGRPASCIPVCGRSDSPRSPFIWNGNSTEIGQWPWQAGISRWLADHNMWFLQCGGSLLNEKWIVTAAHCVTYSATAEIIDPSQFKIYLGKYYRDDSRDDDYVQVREALEIHVNPNYDPGNLNFDIALIQLKTPVTLTTRVQPICLPTDITTREHLKEGTLAVVTGWGLNENNTYSEMIQQAVLPVVAASTCEEGYKEADLPLTVTENMFCAGYKKGRYDACSGDSGGPLVFADDSRTERRWVLEGIVSWGSPSGCGKANQYGGFTKVNVFLSWIRQFIHHHHHH
B1 was tested, and the “rate of increase in the absorbance at 405 nm (absorbance change rate), proclotting enzyme-activating capacity” value was “activation of the proclotting enzyme was not observed or hardly observed in the His-tag-attached factor C solution containing the equal amount of factor C (0.7 µL), and even in the solution containing about 7 times the amount of factor C (5 µL)”.

B2: His-tag-free recombinant factor C of Japanese horseshoe crab Tachypleus tridentatus (protein)
chain: RGVDLGLCDETRFECKCGDPGYVFNVPMKQCTYFYRWRPYCKPCDDLEAKDICPKYKRCQECKAGLDSCVTCPPNKYGTWCSGECQCKNGGICDQRTGACTCRDRYEGAHCEILKGCPLLPSDSQVQEVRNPPDNPQTIDYSCSPGFKLKGVARISCLPNGQWSSFPPKCIRECAKVSSPEHGKVNAPSGNMIEGATLRFSCDSPYYLIGQETLTCQGNGQWSGQIPQCKKLVFCPDLDPVNHAEHQVKIGVEQKYGQFPQGTEVTYTCSGNYFLMGFNTLKCNPDGSWSGSQPSCVKVADREVDCDSKAVDFLDDVGEPVRIHCPAGCSLTAGTVWGTAIYHELSSVCRAAIHAGKLPNSGGAVHVVNNGPYSDFLGSDLNGIKSEELKSLARSFRFDYVSSSTAGRSGCPDGWFEVEENCVYVTSKQRAWERAQGVCTNMAARLAVLDKDLIPSSLTETLRGKGLTTTWIGLHRLDAEKPFVWELMDRSNVVLNDNLTFWASGEPGNETNCVYLDIRDQLQPVWKTKSCFQPSSFACMMDLSDRNKAKCDDPGPLENGHATLHGQSIDGFYAGSSIRYSCEVLHYLSGTETVTCTTNGTWSAPKPRCIKVITCQNPPVPSYGSVEIKPPSRTNSISRVGSPFLRLPRLPLPLARAAKPPPKPRSSQPSTVDLASKVKLPEGHYRVGSRAIYTCESRYYELLGSQGRRCDSNGNWSGRPASCIPVCGRSDSPRSPFIWNGNSTEIGQWPWQAGISRWLADHNMWFLQCGGSLLNEKWIVTAAHCVTYSATAEIIDPSQFKIYLGKYYRDDSRDDDYVQVREALEIHVNPNYDPGNLNFDIALIQLKTPVTLTTRVQPICLPTDITTREHLKEGTLAVVTGWGLNENNTYSEMIQQAVLPVVAASTCEEGYKEADLPLTVTENMFCAGYKKGRYDACSGDSGGPLVFADDSRTERRWVLEGIVSWGSPSGCGKANQYGGFTKVNVFLSWIRQFI
In the case of B2, the “rate of increase in the absorbance at 405 nm (absorbance change rate), proclotting enzyme-activating capacity” value is reported as “the His-tag-free factor C showed a remarkable proclotting enzyme-activating capacity irrespective of whether it was obtained by the viral method or by the stably expressing cell line method”.
